In series [1] the target is T1, CsIVP (Irregular Vasculature Patterning, bHLH) (Cucumis sativus, UniProt A0A0A0KHS6 1-223).
T1 sequence: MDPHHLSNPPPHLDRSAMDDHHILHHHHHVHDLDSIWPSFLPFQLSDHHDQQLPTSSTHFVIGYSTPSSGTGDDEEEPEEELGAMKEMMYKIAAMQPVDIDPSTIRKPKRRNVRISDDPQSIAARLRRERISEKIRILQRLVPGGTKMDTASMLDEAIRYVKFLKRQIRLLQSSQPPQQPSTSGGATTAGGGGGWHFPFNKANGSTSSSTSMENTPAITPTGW
Kind of series: EMSA; 80, 120, 160 fmol probe; cold competitor; LightShift Chemiluminescent EMSA Kit (Thermo 20148), manufacturer's instructions; buffer, salt, pH and temperature not stated. To be noted: protein: recombinant; tags: pET-28a vector (Ni-NTA purified); chain copies: 2; label: 5' biotin on forward strand; blunt.

The target of series [2] is T1, CsIVP (Irregular Vasculature …). In words: EMSA; 80, 120, 160 fmol probe; LightShift Chemiluminescent EMSA Kit (Thermo 20148), manufacturer's instructions; buffer, salt, pH and temperature not stated. To be noted: protein: recombinant; tags: pET-28a vector (Ni-NTA purified); chain copies: 2; label: 5' biotin on forward strand; blunt. (In EMSA bound probe runs differently from free probe, usually more slowly.)

B1: CsBP promoter probe (-333) (dsDNA)
DNA 1: ACTTTAATGGCGCACCCTCAACTGAGATATCTATACCC
DNA 2: GGGTATAGATATCTCAGTTGAGGGTGCGCCATTAAAGT
For B1, the binding result in series [1] is on record as “binds”.

B2: CsYAB5 promoter probe (-1626) (dsDNA)
DNA 1: TATAAAATTGTTTTAACCAATTGAGTTATATACATTCAA
DNA 2: TTGAATGTATATAACTCAATTGGTTAAAACAATTTTATA
With B2, the binding result in series [1] is recorded as “binds”.

B3: CsAUX4 promoter probe (-1492) (dsDNA)
DNA 1: AGGGATGGAGGTGAGCACATGGGAGGGCCGCTGCC
DNA 2: GGCAGCGGCCCTCCCATGTGCTCACCTCCATCCCT
As to B3, the binding result in series [1] is “binds”.

B4: CsCCR1 promoter probe (-1939) (dsDNA)
DNA 1: CAAAATTGACTTCTTCCACTTGTGCAGTCAAACAGTTC
DNA 2: GAACTGTTTGACTGCACAAGTGGAAGAAGTCAATTTTG
As for B4, in series [2], the binding result was “no binding”.

The record behind these values is PMC7117775, “CsIVP functions in vasculature development and downy mildew resistance in cucumber”.
